Results on 18 substances are retold here after patent publication US20240132578A1.

Broadly, the EC50 is the midpoint of the concentration-response curve. A high value points to lower potency in that assay. The term IC50 denotes the point on the concentration scale where inhibition reaches its midpoint. A lower IC50 goes with higher potency.

Assay [1] addresses HIV-1 Env of isolate 92BR020 (Clade B) (HIV-1). Briefly: cell-based or functional assay.
For assay [2], the target named is HIV-1 Env of isolate 92UG024 (Clade D) (HIV-1). In words: cell-based or functional assay.
Assay [3] addresses HIV-1 Env of isolate IAVI-C18 (Clade C) (HIV-1). Briefly: cell-based or functional assay.
Assay [4] has as its target HIV-1 Env of isolate 93UG077 (Clade A) (HIV-1). Briefly: cell-based or functional assay.
In assay [5] the target is HIV-1 Env of isolate 92UG005 (Clade D) (HIV-1). In words: cell-based or functional assay.
Assay [6] deals with HIV-1 Env of isolate NL43 (positive control) (HIV-1). Briefly: cell-based or functional assay.
The target of assay [7] is HIV-1 Env of isolate IAVI-C22 (Clade C) (HIV-1). In words: cell-based or functional assay.
Assay [8] concerns the target HIV-1 Env of isolate CMU02 (CRF01_AE) (HIV-1). In words: cell-based or functional assay.
Assay [9] has as its target JR-FL GP120 ΔV3 (HIV-1 JR-FL). In words: ELISA, antigen-coated wells, mAb titrated; EC50 by nonlinear regression.
Assay [10] concerns the target HIV-1 MGRM-D-018 envelope glycoprotein (Env) on pseudovirus (HIV-1). Briefly: cell-based or functional assay.
For assay [11], the target named is HIV-1 APV6 envelope glycoprotein (Env) on pseudovirus (HIV-1). Briefly: cell-based or functional assay.
Assay [12] concerns the target aMLV envelope protein on pseudovirus (negative control virus). In words: cell-based or functional assay.
For assay [13], the target named is HIV-1 MGRM-C-026 envelope glycoprotein (Env) on pseudovirus (HIV-1). In words: cell-based or functional assay.
Assay [14] deals with HIV-1 MGRM-D-001 envelope glycoprotein (Env) on pseudovirus (HIV-1). Briefly: cell-based or functional assay.
The target of assay [15] is HIV-1 93UG077 envelope glycoprotein (Env) on pseudovirus (HIV-1). In words: cell-based or functional assay.
Assay [16] addresses HIV-1 CMU02 envelope glycoprotein (Env) on pseudovirus (HIV-1). Briefly: cell-based or functional assay.
The target of assay [17] is HIV-1 94UG103 envelope glycoprotein (Env) on pseudovirus (HIV-1). In words: cell-based or functional assay.
For assay [18], the target named is HIV-1 NL43 envelope glycoprotein (Env) on pseudovirus (HIV-1). Briefly: cell-based or functional assay.
The target of assay [19] is HIV-1 JRCSF envelope glycoprotein (Env) on pseudovirus (HIV-1) (UniProt P20871). In words: cell-based or functional assay.
In assay [20] the target is HIV-1 93IN905 envelope glycoprotein (Env) on pseudovirus (HIV-1). In words: cell-based or functional assay.
Assay [21] concerns the target HIV-1 MGRM-AG-005 envelope glycoprotein (Env) on pseudovirus (HIV-1). Briefly: cell-based or functional assay.
In assay [22] the target is HIV-1 MGRM-D-001 Env (HIV-1). In words: cell-based or functional assay.
Assay [23] addresses HIV-1 envelope glycoprotein (Env) of isolate JR-FL, on pseudovirus (HIV-1). In words: cell-based or functional assay.
Assay [24] deals with HIV-1 APV17 Env (HIV-1). In words: cell-based or functional assay.
Assay [25] has as its target HIV-1 JRFL Env (HIV-1). Briefly: cell-based or functional assay.
Assay [26] deals with HIV-1 MGRM-AG-005 Env (HIV-1). In words: cell-based or functional assay.
Assay [27] has as its target HIV-1 IAVI_C22 envelope protein (Env) on pseudotyped virus (HIV-1 strain IAVI C22). In words: cell-based or functional assay.
The target of assay [28] is HIV-1 Env of isolate APV-6 (Clade B) (HIV-1). In words: cell-based or functional assay.
Assay [29] addresses HIV-1 envelope glycoprotein (Env) of isolate 94UG103 (HIV-1). Briefly: cell-based or functional assay.
Assay [30] deals with HIV-1 NL43 envelope protein (Env) on pseudotyped virus (HIV-1 strain NL43). Briefly: cell-based or functional assay.
Assay [31] concerns the target HIV-1 94UG103 envelope protein (Env) on pseudotyped virus (HIV-1 strain 94UG103). In words: cell-based or functional assay.
Assay [32] deals with HIV-1 JR-CSF Env K305A (HIV-1 (isolate JR-CSF, clade B)) (UniProt P20871). Briefly: cell-based or functional assay.
For assay [33], the target named is HIV-1 JR-CSF Env N295A (HIV-1 (isolate JR-CSF, clade B)) (UniProt P20871). In words: cell-based or functional assay.
Assay [34] concerns the target HIV-1 JR-CSF Env I309A (HIV-1 (isolate JR-CSF, clade B)) (UniProt P20871). Briefly: cell-based or functional assay.
In assay [35] the target is HIV-1 JR-CSF Env D325A (HIV-1 isolate JR-CSF) (UniProt P20871). In words: cell-based or functional assay.

PGT-144 (4970_K22) (antibody), sequence (VH): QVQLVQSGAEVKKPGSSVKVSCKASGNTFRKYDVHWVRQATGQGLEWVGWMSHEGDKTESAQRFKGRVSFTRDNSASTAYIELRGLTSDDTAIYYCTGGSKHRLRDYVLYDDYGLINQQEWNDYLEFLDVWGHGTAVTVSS
PGT-144 (4970_K22) (antibody), sequence (VL): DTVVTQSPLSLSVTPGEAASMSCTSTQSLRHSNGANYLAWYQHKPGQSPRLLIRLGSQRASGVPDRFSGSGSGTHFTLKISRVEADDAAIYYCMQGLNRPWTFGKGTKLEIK
1443_C16 (PG16) (TCN-116) (antibody), sequence (VH): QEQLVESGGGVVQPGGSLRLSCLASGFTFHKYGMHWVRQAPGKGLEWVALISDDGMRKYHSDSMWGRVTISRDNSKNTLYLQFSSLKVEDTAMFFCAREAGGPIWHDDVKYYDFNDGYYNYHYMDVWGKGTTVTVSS
1443_C16 (PG16) (TCN-116) (antibody), sequence (VL): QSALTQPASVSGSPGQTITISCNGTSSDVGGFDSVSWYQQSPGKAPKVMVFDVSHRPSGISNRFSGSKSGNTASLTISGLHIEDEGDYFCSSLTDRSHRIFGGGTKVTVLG
PGT-141 (4964_G22; 4993_K13) (antibody), sequence (VH): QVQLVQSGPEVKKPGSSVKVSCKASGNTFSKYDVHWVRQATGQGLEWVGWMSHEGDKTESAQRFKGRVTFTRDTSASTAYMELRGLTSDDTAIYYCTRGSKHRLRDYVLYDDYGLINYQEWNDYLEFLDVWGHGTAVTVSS
PGT-141 (4964_G22; 4993_K13) (antibody), sequence (VL): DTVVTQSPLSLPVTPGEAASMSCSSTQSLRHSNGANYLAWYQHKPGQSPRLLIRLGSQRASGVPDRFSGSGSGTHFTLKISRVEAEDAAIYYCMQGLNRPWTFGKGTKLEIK
PGT-142 (4995_E20) (antibody), sequence (VH): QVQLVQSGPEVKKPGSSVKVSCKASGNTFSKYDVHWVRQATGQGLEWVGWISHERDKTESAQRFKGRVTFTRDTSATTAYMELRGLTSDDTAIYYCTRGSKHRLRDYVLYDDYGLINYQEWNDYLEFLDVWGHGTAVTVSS
PGT-143 (4980_N08) (antibody), sequence (VH): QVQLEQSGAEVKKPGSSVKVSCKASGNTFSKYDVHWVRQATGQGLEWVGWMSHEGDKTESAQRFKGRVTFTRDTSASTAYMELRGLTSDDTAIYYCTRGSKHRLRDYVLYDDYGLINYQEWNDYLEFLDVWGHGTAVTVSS
PGT-143 (4980_N08) (antibody), sequence (VL): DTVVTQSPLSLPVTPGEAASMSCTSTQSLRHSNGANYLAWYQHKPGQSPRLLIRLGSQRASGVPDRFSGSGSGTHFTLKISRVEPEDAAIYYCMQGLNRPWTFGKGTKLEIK
5329_C19 (PGT-136) (antibody), sequence (VH): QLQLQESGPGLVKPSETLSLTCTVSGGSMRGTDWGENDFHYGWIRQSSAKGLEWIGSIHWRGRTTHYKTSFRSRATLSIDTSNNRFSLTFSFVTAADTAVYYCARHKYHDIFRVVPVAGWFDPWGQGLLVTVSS
5329_C19 (PGT-136) (antibody), sequence (VL): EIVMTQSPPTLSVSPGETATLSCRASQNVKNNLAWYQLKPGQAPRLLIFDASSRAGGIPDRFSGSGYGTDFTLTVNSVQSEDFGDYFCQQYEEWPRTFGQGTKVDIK
5345_I01 (PGT-137) (antibody), sequence (VH): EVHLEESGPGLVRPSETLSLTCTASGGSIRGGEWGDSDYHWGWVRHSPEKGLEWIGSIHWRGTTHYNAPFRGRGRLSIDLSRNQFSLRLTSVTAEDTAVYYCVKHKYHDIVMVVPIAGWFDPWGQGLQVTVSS
5345_I01 (PGT-137) (antibody), sequence (VL): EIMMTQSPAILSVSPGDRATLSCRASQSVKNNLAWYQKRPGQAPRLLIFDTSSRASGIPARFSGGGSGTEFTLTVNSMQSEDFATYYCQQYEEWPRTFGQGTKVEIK

As to 4E10 (antibody), the IC90 (neutralization of pseudovirus) is greater than 50 µg/mL in [1]; 23.7 µg/mL in assay [2]; greater than 50 µg/mL in assay [3]; greater than 50 µg/mL in [4]; greater than 50 µg/mL in assay [5]; 29.6 µg/mL in [6]. Further, the IC90 (neutralization of pseudovirus) was determined as 16.4 µg/mL in [7] and 13.4 µg/mL in assay [8].

5329_C19 (PGT-136) (antibody) displayed an EC50 in assay [9] of 0.1 µg/mL.

As for PGT-144 (4970_K22) (antibody), the IC50, pseudovirus neutralization in assay [10], in [11], in [12], in assay [13], in assay [14] and in [15] was greater than 10 µg/mL in each case. The IC50, pseudovirus neutralization is greater than 10 µg/mL in assay [16]; greater than 10 µg/mL in assay [17]; greater than 10 µg/mL in assay [18]; 0.128 µg/mL in assay [19]; 0.158 µg/mL in [20]; greater than 10 µg/mL in assay [21].

4877_D15 (PGT-122) (antibody): the IC50, pseudovirus neutralization in assay [22] is 0.867 µg/mL; in assay [23] it was 0.026 µg/mL; in assay [24] it was 0.522 µg/mL; in assay [25] it was 0.0471 µg/mL; in [26], greater than 10 µg/mL.

Take PGT-142 (4995_E20) (antibody): the IC50, pseudovirus neutralization in assay [10] was greater than 10 µg/mL; in [11], 5.42 µg/mL; in assay [12] it was greater than 10 µg/mL; in assay [13], greater than 10 µg/mL; in assay [14], greater than 10 µg/mL; in [15], greater than 10 µg/mL. Moreover, the IC50, pseudovirus neutralization in [16] is greater than 10 µg/mL; in assay [17], greater than 10 µg/mL; in assay [18], 0.712 µg/mL; in [19], 0.0085 µg/mL; in assay [20], 0.0017 µg/mL; in [21], 0.22 µg/mL.

1496_C09 (PG9) (TCN-109) (antibody): the IC90 (neutralization of pseudovirus) in [3] was 0.866 µg/mL; in assay [28] it was 1.96 µg/mL. Besides, the results for the IC50, Neutralizing Antibody Assay, Virus/Ab Incubation 1 hour in assay [27], in [30] and in assay [31] were 24.9 µg/mL, 0.294 µg/mL and 0.334 µg/mL, respectively. Further, the IC50, Neutralizing Antibody Assay, Virus/Ab Incubation 18 hour worked out at 2.11 µg/mL in [27], 38 µg/mL in [30] and 0.0942 µg/mL in assay [31]. The same substance had a half-maximal inhibitory concentration (IC50) in [29] of 0.34 µg/mL.

For the substance 5114_A19 (PGT-128) (antibody), the EC50 in assay [9] was 7.8 µg/mL. In [32], this substance returned a Fold IC50 increase relative to wild-type of 1.8 fold.

b12 (antibody): the IC90 (neutralization of pseudovirus) in [1], in [2], in assay [3], in [4], in assay [5] and in [28] was greater than 50 µg/mL throughout. In addition, the IC90 (neutralization of pseudovirus) turned out to be 0.28 µg/mL in assay [6], 29.6 µg/mL in [7] and 34.2 µg/mL in assay [8].

For 1443_C16 (PG16) (TCN-116) (antibody), the IC90 (neutralization of pseudovirus) in assay [1] is greater than 50 µg/mL; in assay [2] it was greater than 50 µg/mL; in assay [3] it was 0.207 µg/mL; in [4] it was greater than 50 µg/mL; in assay [5] it was greater than 50 µg/mL; in assay [28], 44.3 µg/mL. The IC90 (neutralization of pseudovirus) in assay [6], in [7] and in assay [8] was greater than 50 µg/mL throughout. Moreover, the IC50, Neutralizing Antibody Assay, Virus/Ab Incubation 1 hour was 0.114 µg/mL in [27], less than 0.0025 µg/mL in assay [30] and 0.0211 µg/mL in assay [31]. The IC50, Neutralizing Antibody Assay, Virus/Ab Incubation 18 hour stood at 0.106 µg/mL in assay [27], 4.99 µg/mL in [30] and 0.0085 µg/mL in assay [31].

PGV04 (antibody) had an IC50 in assay [29] of 0.202 µg/mL.

For the substance PGT-143 (4980_N08) (antibody), the IC50, pseudovirus neutralization was greater than 10 µg/mL in [10]; 4.43 µg/mL in [11]; greater than 10 µg/mL in [12]; greater than 10 µg/mL in assay [13]; greater than 10 µg/mL in assay [14]; greater than 10 µg/mL in assay [15]. Also, the IC50, pseudovirus neutralization in [16] is greater than 10 µg/mL; in [17], greater than 10 µg/mL; in assay [18], 0.585 µg/mL; in assay [19], 0.0064 µg/mL; in assay [20] it was 0.0021 µg/mL; in [21], 0.244 µg/mL.

The substance 5345_I01 (PGT-137) (antibody) gave an EC50 in assay [9] of 0.1 µg/mL.

For 1495_C14 (PGC14) (antibody), the IC50, Neutralizing Antibody Assay, Virus/Ab Incubation 1 hour in assay [27] is greater than 50 µg/mL; in [30], 0.35 µg/mL; in assay [31], greater than 50 µg/mL. The IC50, Neutralizing Antibody Assay, Virus/Ab Incubation 18 hour in assay [27] was 13.4 µg/mL; in [30], 0.15 µg/mL; in assay [31] it was greater than 50 µg/mL.

Consider 5147_N06 (PGT-130) (antibody), for which the IC50, pseudovirus neutralization in assay [22] was greater than 10 µg/mL; in assay [24], greater than 10 µg/mL; in [25] it was 0.0346 µg/mL; in assay [26] it was 0.947 µg/mL. Moreover, the Fold IC50 increase relative to wild-type was 0.7 fold in assay [33], greater than 77.9 fold in [34], 6.9 fold in assay [32] and greater than 1000 fold in assay [35].

As for 2G12 (antibody), the IC90 (neutralization of pseudovirus) in assay [1] is 24.1 µg/mL; in assay [2] it was 7.57 µg/mL; in assay [3], greater than 50 µg/mL; in [4], greater than 50 µg/mL; in assay [5], greater than 50 µg/mL; in [6], 15.8 µg/mL. For the same substance, the IC90 (neutralization of pseudovirus) in [7] and in assay [8] was greater than 50 µg/mL throughout.

PGT-141 (4964_G22; 4993_K13) (antibody): the IC50, pseudovirus neutralization in assay [10] is greater than 10 µg/mL; in assay [11], 5.08 µg/mL; in assay [12], greater than 10 µg/mL; in assay [13], greater than 10 µg/mL; in [14] it was greater than 10 µg/mL; in assay [15] it was greater than 10 µg/mL. Besides, the IC50, pseudovirus neutralization in [16] was greater than 10 µg/mL; in [17], greater than 10 µg/mL; in assay [18], 0.856 µg/mL; in assay [19], 0.0047 µg/mL; in assay [20], 0.0016 µg/mL; in assay [21], 0.392 µg/mL.

4838_L06 (PGT-121) (antibody) yielded a half-maximal effective concentration (EC50) in assay [9] greater than 10 µg/mL.

Regarding 2F5 (antibody), the IC90 (neutralization of pseudovirus) in [1] is greater than 50 µg/mL; in [2] it was 34.4 µg/mL; in [4], 33.4 µg/mL; in [5], greater than 50 µg/mL; in assay [6] it was 19.3 µg/mL; in assay [7] it was greater than 50 µg/mL. In assay [8], this substance came in with an IC90 (neutralization of pseudovirus) of 12.2 µg/mL.
